{"source": "paper PMC4439582", "about": "(Immunity, 2015)", "key": {"[1]": {"target": "IL-2Rβ/IL-2Rγ (Homo sapiens) (UniProt P14784)", "details": "cited from earlier work"}, "[2]": {"target": "mIL-2:S4B6 immunocomplex (mouse | not stated) (UniProt P04351)", "test": "SPR"}, "[3]": {"target": "mouse interleukin-2 displayed on the surface of yeast (mouse, UniProt P04351)", "test": "flow cytometry on cells"}, "[4]": {"target": "mouse interleukin-2 (mouse) (UniProt P04351)"}}}
{"molecule": "IL-2 (from UniProt P60568)", "values": [{"measurement": "Kd", "setting": "[1]", "value": 1, "unit": "nM"}]}
{"molecule": "mouse interleukin-2 receptor-β (from UniProt P16297 27-240)", "values": [{"measurement": "fold enhancement of binding over free mIL-2", "setting": "[2]", "value": 6, "unit": "fold"}]}
{"molecule": "JES6-1 antibody (antibody, V domains shown) VH: EIQLQQSGPELRRPGSSVKLSCKASGYNITDYLIHWVRHRPEHGLEWIGWIDPEDGETRYAQKFQSKATLTADTSSNAAYMQLSSLTPEDTATYFCARSLDSTYIYPFAYWGQGTLVTVSS VL: DIVMTQSPFSLAVSEGEMVTINCKSSQSLLSSGNQKNYLAWYQQKPGQSPKLLIYYASTGQSGVPDRFIGSGSGTDFTLTISDVQAEDLADYYCLQHYISPPTFGAGTKLELK", "values": [{"measurement": "binding result", "setting": "[3]", "value": "binds"}]}
{"molecule": "S4B6 antibody (antibody, V domains shown) VH: EVQLQESGAELVRPGTSVKLSCKVSGDTITAYYLHFVRQRPGQGLEWIGRIDPEDDSTKYAENFKNKATFTADASSNTAYLRLSSLTSEDTATYFCTTVTFYYSRELRWFAYWGQGTLVTVSS VL: DIQVTQSPASLSASLEEIVTITCQASQDIGNYLSWYQQKLGKSPQLLIHSATSLADGVPSRFSGSRSGTQYSLKINRLQVEDTGIYYCLQHYSTPYTFGAGTKLELK", "values": [{"measurement": "fold higher apparent affinity than the monovalent form", "setting": "[4]", "value": "> 25", "unit": "fold"}, {"measurement": "binding result", "setting": "[3]", "value": "binds"}]}
